Here are results for two molecules from US20180194839A1 (Novartis, published 2018).

Positions count from the first letter of the chain named. Names and notes keep the numbering of the source.

Assay [1] addresses T1, human IL-17A (construct not stated) (human, UniProt Q16552 24-155, limits assumed).
T1 sequence: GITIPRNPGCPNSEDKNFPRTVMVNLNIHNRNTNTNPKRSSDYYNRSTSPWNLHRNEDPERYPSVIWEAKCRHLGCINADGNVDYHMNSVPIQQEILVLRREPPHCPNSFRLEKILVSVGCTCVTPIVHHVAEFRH
In words: cell-based or functional assay.

Assay [2] deals with T2, recombinant human IL-17F (SEQ ID NO: 77) (human, UniProt Q96PD4 31-163).
T2 construct: homodimer; also called huIL-17F; rhuIL-17F
T2 sequence: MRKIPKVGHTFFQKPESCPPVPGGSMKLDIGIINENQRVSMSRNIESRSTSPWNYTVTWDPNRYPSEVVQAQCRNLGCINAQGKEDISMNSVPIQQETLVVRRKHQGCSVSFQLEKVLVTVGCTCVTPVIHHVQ
The assay is described as follows: ELISA, coated antigen.

The target of assay [3] is T3, recombinant cynomolgus IL-17F (SEQ ID NO: 80) (cynomolgus monkey, UniProt Q96PD4 31-163 (human entry), limits assumed).
T3 construct: also called cynoIL-17F; cyno IL-17F
T3 chain: T2 sequence with G23E, I30T, R74K, N75H, V101L, I130V
The assay is described as follows: ELISA, coated antigen.

For assay [4], the target named is T4, recombinant human IL-3 (R&D Systems Cat#203-IL/CF) (human, UniProt P08700 20-152).
T4 construct: also called huIL-3
T4 sequence (looked up): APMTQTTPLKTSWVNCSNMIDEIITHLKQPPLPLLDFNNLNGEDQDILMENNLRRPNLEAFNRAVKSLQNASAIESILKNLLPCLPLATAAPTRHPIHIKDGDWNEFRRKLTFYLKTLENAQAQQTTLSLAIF
The assay is described as follows: ELISA, coated cytokine.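 Note: antibodies incubated 3 h at room temperature on cytokine-coated plates, binding read out with alkaline phosphatase-conjugated anti-species IgG secondary antibodies.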

In assay [5] the target is T5, recombinant mouse IL-12 (R&D Systems Cat#419-ML-010/CF) (mouse, UniProt P43431 23-215; P43432 23-335).
T5 construct: coated at 0.5 µg/ml; also called mIL-12
T5 sequence (looked up) 1: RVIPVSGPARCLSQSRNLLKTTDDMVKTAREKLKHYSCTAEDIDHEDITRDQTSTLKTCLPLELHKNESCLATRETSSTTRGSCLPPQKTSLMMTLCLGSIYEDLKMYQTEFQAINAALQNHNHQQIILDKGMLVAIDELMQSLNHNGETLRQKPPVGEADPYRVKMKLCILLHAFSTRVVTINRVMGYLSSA
T5 sequence (looked up) 2: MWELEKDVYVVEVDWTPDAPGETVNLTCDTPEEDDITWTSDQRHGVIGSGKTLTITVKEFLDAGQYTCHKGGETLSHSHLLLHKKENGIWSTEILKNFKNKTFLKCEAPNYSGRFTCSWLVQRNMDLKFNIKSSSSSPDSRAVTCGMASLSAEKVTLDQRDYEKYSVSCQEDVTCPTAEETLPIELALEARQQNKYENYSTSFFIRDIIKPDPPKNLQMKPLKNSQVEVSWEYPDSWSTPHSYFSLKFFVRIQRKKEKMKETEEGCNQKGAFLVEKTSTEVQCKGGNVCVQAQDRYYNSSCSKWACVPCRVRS
In words: ELISA, coated cytokine.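 Note: antibodies incubated 3 h at room temperature on cytokine-coated plates, binding read out with alkaline phosphatase-conjugated anti-species IgG secondary antibodies.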

In assay [6] the target is T6, recombinant human IL-1β (Novartis) (human, UniProt P01584 117-269).
T6 construct: also called huIL1β
The assay is described as follows: ELISA, coated cytokine.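 Note: antibodies incubated 3 h at room temperature on cytokine-coated plates, binding read out with alkaline phosphatase-conjugated anti-species IgG secondary antibodies.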

Assay [7] deals with T7, recombinant mouse IL-17F (R&D Systems Cat#2057-IL/CF) (mouse, UniProt Q7TNI7 29-161).
T7 construct: also called mIL-17F
T7 sequence (looked up): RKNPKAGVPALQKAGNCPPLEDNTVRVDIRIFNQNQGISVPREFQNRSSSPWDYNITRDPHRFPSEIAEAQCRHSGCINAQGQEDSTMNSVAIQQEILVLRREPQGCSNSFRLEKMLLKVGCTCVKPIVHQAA
The assay is described as follows: ELISA, coated cytokine.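 Note: antibodies incubated 3 h at room temperature on cytokine-coated plates, binding read out with alkaline phosphatase-conjugated anti-species IgG secondary antibodies.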

The target in assay [8] is T8, recombinant human IL-12 (R&D Systems Cat#219-IL-005/CF) (human, UniProt P29459 23-219; P29460 23-328).
T8 construct: also called huIL-12
T8 sequence (looked up) 1: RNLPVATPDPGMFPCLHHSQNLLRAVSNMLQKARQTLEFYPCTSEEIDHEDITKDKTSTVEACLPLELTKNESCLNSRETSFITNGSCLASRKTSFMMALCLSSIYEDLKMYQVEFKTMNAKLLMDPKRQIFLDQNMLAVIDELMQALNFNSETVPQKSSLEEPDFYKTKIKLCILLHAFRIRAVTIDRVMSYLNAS
T8 sequence (looked up) 2: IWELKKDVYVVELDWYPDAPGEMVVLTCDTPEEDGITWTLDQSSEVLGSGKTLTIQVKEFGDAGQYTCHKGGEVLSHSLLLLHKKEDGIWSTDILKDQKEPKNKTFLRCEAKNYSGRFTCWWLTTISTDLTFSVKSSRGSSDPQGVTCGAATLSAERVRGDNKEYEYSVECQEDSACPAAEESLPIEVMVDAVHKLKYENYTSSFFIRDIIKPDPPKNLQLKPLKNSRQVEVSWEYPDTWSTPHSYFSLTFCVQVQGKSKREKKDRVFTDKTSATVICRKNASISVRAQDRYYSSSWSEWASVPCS
The assay is described as follows: ELISA, coated cytokine.

In assay [9] the target is T2, recombinant human IL-17F (SEQ ID NO: 77). The assay is described as follows: ELISA, coated cytokine, Ab 10 µg/ml.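 Note: antibodies incubated 3 h at room temperature on the coated wells, binding detected with alkaline phosphatase-conjugated anti-IgG secondary antibodies matching the species of each test antibody.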
For assay [10], the target named is T1, human IL-17A (construct not stated). The assay is described as follows: cell-based or functional assay. This is another data set of the same source.
Assay [11] has as its target T9, recombinant human IL-23 (R&D Systems Cat#1290-IL-010/CF) (human, UniProt Q9NPF7 20-189; P29460 23-328).
T9 construct: also called huIL-23
T9 sequence (looked up) 1: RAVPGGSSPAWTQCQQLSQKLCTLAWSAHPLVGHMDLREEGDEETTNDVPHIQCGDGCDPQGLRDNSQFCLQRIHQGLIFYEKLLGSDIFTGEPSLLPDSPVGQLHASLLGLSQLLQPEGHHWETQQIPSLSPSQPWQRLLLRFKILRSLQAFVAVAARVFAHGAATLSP
T9 sequence (looked up) 2: T8 sequence (looked up) 2
In words: ELISA, coated cytokine.

B1: XAB4 (antibody, human IgG1, kappa, V domains shown)
VH: EVQLVESGGDLVQPGGSLRLSCAASGFTFSSYWMSWVRQAPGKGLEWVANIKQDGSEKYYVDSVKGRFTISRDNAKNSLYLQMNSLRAEDTAVYYCARDRGSLYYWGQGTLVTVSS
VL: AIQLTQSPSSLSASVGDRVTITCRPSQGINWELAWYQQKPGKAPKLLIYDASSLEQGVPSRFSGSGSGTDFTLTISSLQPEDFATYYCQQFNSYPLTFGGGTKVEIKR
notes: also called MB435 N56Q
On to B1, for which the “EC50, in vitro neutralization activity, T = 0 weeks” value in [1] came to 0.048 µg/mL. Also, the “EC50, in vitro neutralization activity, T = 4 weeks at pH 8, 40°C (forced deamidation)” value in assay [1] was found to be 47 ng/ml. Besides, the binding result is given as “no binding (tested: 1 µg/ml)” in assay [2]; “no binding (tested: 1 µg/ml)” in assay [3]; “no binding (tested: 10 µg/ml)” in [4]; “no binding (tested: 10 µg/ml)” in assay [5]; “no binding (tested: 10 µg/ml)” in [6]; “no binding (tested: 10 µg/ml)” in assay [7]. The binding result in assay [8] was “no binding (tested: 10 µg/ml)”. In addition, the O.D. in [9] was found to be 0.035 O.D.

B2: XAB1 (antibody, human IgG1, kappa, V domains shown)
VH: B1 VH
VL: B1 VL with N30I, W31S, E32A, Q56N
notes: human IgG1/kappa monoclonal antibody; also called parental XAB1; XAB1 IgG
With B2, in assay [10], the “IC50, in vitro neutralization, Hu IL-6 sec” value came out at 4 nM and the “IC50, in vitro neutralization, Hu IL-8 sec” value was 3 nM. For the same molecule, the binding result in assay [11] is “no binding (tested: 10 µg/ml)”.
